Target: T1, RAF1 (endogenous, pMECs) (mouse (endogenous in pMECs), UniProt Q99N57 1-648)
T1 construct: RAF1 kinase, endogenous in primary mouse endothelial cells; source: endogenous, pMEC lysate
Experiment: co-IP; RAF1 immunoprecipitates from lysates of F/F and BRAFΔ/Δ pMEC monolayers; Protein G Sepharose with antibody, 4 °C overnight; 25 mM HEPES, 150 mM NaCl, 1 mM EGTA, 0.5% NP-40, 10% glycerol; immunoblot
Conditions: partners not purified

B1: RHO‐dependent kinase α (enzyme, mouse (endogenous in pMECs), UniProt P70336 1-1388, looked up)
chain: MSRPPPTGKMPGAPEAAPGDGAGAGRQRKLEALIRDPRSPINVESLLDGLNSLVLDLDFPALRKNKNIDNFLNRYEKIVKKIRGLQMKAEDYDVVKVIGRGAFGEVQLVRHKASQKVYAMKLLSKFEMIKRSDSAFFWEERDIMAFANSPWVVQLFCAFQDDRYLYMVMEYMPGGDLVNLMSNYDVPEKWAKFYTAEVVLALDAIHSMGLIHRDVKPDNMLLDKHGHLKLADFGTCMKMDETGMVHCDTAVGTPDYISPEVLKSQGGDGYYGRECDWWSVGVFLFEMLVGDTPFYADSLVGTYSKIMDHKNSLCFPEDTEISKHAKNLICAFLTDREVRLGRNGVEEIKQHPFFKNDQWNWDNIRETAAPVVPELSSDIDSSNFDDIEDDKGDVETFPIPKAFVGNQLPFIGFTYFRENLLLSDSPPCRENDAIQTRKSEESQEIQKKLYALEEHLSSEVQAKEELEQKCKSINTRLEKTAKELEEEITLRKSVESTLRQLEREKALLQHKNAEYQRKADHEADKKRNLENDVNSLKDQLEDLKKRNQSSQISTEKVNQLQKQLDEANALLRTESDTAARLRKTQAESSKQIQQLESNNRDLQDKNCLLETAKLKLEKEFINLQSALESERRDRTHGSEIINDLQGRISGLEEDLKTGKALLAKVELEKRQLQEKLTDLEKEKSNMEIDMTYQLKVIQQSLEQEEAEHKTTKARLADKNKIYESIEEAKSEAMKEMEKKLLEERSLKQKVENLLLEAEKRCSILDCDLKQSQQKLNELLKQKDVLNEDVRNLTLKIEQETQKRCLMQNDLKMQTQQVNTLKMSEKQIKQENNHLMEMKMNLEKQNTELRKERQDADGQMKELQDQLEAEQYFSTLYKTQVRELKEENEEKTKLCKELQQKKQDLQDERDSLAAQLEITLTKADSEQLARSIAEEQYSDLEKEKIMKELEIKEMMARHKQELTEKDTTIASLEETNRTLTSDVANLANEKEELNNKLKDSQEQLSKLKDEEMSAAAIKAQFEKQLLNERTLKTQAVNKLAEIMNRKEPVKRGSDTDVRRKEKENRKLHMELKSEREKLTQQMIKYQKELNEMQAQIAEESQIRIELQMTLDSKDSDIEQLRSQLQALHIGMDSSSIGSGPGDAEPDDGFPESRLEGWLSLPVRNNTKKFGWVKKYVIVSSKKILFYDSEQDKEQSNPYMVLDIDKLFHVRPVTQTDVYRADAKEIPRIFQILYANEGESKKEPEFPVEPVGEKSNYICHKGHEFIPTLYHFPTNCEACMKPLWHMFKPPPALECRRCHIKCHKDHMDKKEEIIAPCKVYYDISSAKNLLLLANSTEEQQKWVSRLVKKIPKKPPAPDPFARSSPRTSMKIQQNQSIRRPSRQLAPNKPS
notes: ROKalpha (ROCK2), endogenous in primary mouse endothelial cells; also called ROKα; ROK; source: endogenous, pMEC lysate
For B1, the “fold increase of the co-precipitate in BRAF-deficient against F/F pMECs” value was 3 fold.

Source: article PMC6617973, “RAF dimers control vascular permeability and cytoskeletal rearrangements at endothelial cell‐cell junctions” (The Febs Journal, 2019)
